Assay [1] deals with T1, CD3 expressed on cell-surface of primary human T cells (human, UniProt P07766 23-207; P04234 22-171).
T1 construct: also called cell-surface CD3; human CD3
The assay can be described thus: flow cytometry on human PBMCs, CD4+ cells, donor 3761. On the technique in general: In flow cytometry, cells or beads pass a laser one at a time.
Method: (§1) Briefly, peripheral blood mononuclear cells (PBMCs) were incubated with different concentrations of HIV×CD3 bispecific molecules for 1 hour at RT. […] Cells were then washed, fixed/permeabilized, and analyzed using BD LSRFortessa according to the manufacturer's protocol. The percentage of α-huIgG-APC-positive CD4+ and CD8+ T cells and the mean fluorescence intensity of the α-huIgG-APC of CD4+ and CD8+ cells were collected, and data analyzed using GraphPad Prism.
(§2) Binding experiments were performed using PBMCs from two healthy human donors.

The target of assay [2] is T1, CD3 expressed on cell-surface of …. Kind of assay: flow cytometry on PBMCs, % anti-huIgG+ CD8+ cells, donor hu 340.
Method: (§3) Briefly, PBMCs from healthy human donors and healthy rhesus or cynomolgus monkey donors were incubated with different concentrations of HIV×CD3 bispecific molecules for 1 hour at RT. […] Cells were then washed, fixed/permeabilized, and analyzed on BD LSRFortessa. The percentage of α-huIgG-APC-positive CD4+ and CD8+ T cells and the mFI of the α-huIgG-APC of CD4+ and CD8+ cells were collected, and data analyzed using GraphPad Prism.
Assay [3] shares this target. The assay can be described thus: flow cytometry on human PBMCs, CD4+ cells, donor 4574.
Method: as §1, §2
Assay [4] has the same target. The assay can be described thus: flow cytometry on PBMCs, % anti-huIgG+ CD8+ cells, donor hu 151.
Method: as §3
The target is the same in assay [5]. The assay can be described thus: cell-based or functional assay.
Assay [6] shares this target. Kind of assay: flow cytometry on human PBMCs, CD8+ cells, donor 3761.
Method: as §1, §2
Assay [7] concerns the target CD3 on rhesus monkey T cells in PBMCs (rhesus monkey). Kind of assay: flow cytometry on PBMCs, % anti-huIgG+ CD4+ cells, donor rh 3563.
For assay [8], the target named is T1, CD3 expressed on cell-surface of …. The assay can be described thus: flow cytometry on human PBMCs, CD8+ cells, donor 4574.
Method: as §1, §2
Assay [9] has as its target CD3 on rhesus monkey T cells in PBMCs (rhesus monkey). The assay can be described thus: flow cytometry on PBMCs, % anti-huIgG+ CD4+ cells, donor rh 3483.
Assay [10] has the same target. The assay can be described thus: flow cytometry on PBMCs, % anti-huIgG+ CD8+ cells, donor rh 3563.
Assay [11] has the same target. The assay can be described thus: flow cytometry on PBMCs, % anti-huIgG+ CD8+ cells, donor rh 3483.
The target of assay [12] is T1, CD3 expressed on cell-surface of …. The assay can be described thus: flow cytometry on PBMCs, % anti-huIgG+ CD4+ cells, donor hu 151.
Assay [13] shares this target. Kind of assay: flow cytometry on PBMCs, % anti-huIgG+ CD4+ cells, donor hu 340.
Method: as §3
Assay [14] addresses T2, biotinylated CD3 epsilon: delta heterodimer protein (Amsbio AMS.CDD-H52WO) (Homo sapiens (Human), UniProt P07766 23-126; P04234 22-105). The assay can be described thus: BLI (Octet), corresponding huSP34 Fab variant. Background: Biolayer interferometry detects binding as a change in optical thickness at a sensor tip.
Method: (§4) The CD3 binding kinetics of the purified huSP34 Fabs were determined using OctetRed384 (Pall ForteBio, CA) biolayer interferometry (BLI). […] Streptavidin (SA) coated biosensors tips (Pall ForteBio, CA) were used to capture biotinylated CD3 epsilon: delta heterodimer and typical immobilization levels captured on the SA sensors were 1 nm which approximately translates to 300 ng/ml of captured protein. For kinetic measurements biosensors were first pre-wetted with assay buffer for 10 minutes to remove protective sucrose coating followed by the recommended regeneration conditions for standardization of the biosensor surface for the experiment. In order to load the biosensors with antigen, 300 ng/ml of biotinylated CD3 epsilon: delta heterodimer protein (Amsbio AMS.CDD-H52WO) was immobilized on the SA sensor for 900 seconds. The CD3 loaded biosensors were then blocked with 20 ug/ml biocytin (sigma) for 200 seconds and then dipped into assay buffer containing wells for 200 seconds to remove any non-specific protein or unbound CD3 heterodimer.
(§5) CD3 loaded and biocytin blocked biosensors were then transferred into fresh assay buffer for 200 seconds to collect a baseline read. Kinetic measurements for anti-CD3 Fab and bispecific antibody binding were performed by dipping the CD3-coated biosensors into wells containing multiple concentrations of Fab or Ab (0-300 nM) for 100 seconds followed by a 300 second dissociation time by transferring the biosensors into assay buffer containing wells. The CD3 loaded sensors were then regenerated for the next kinetic measurement. Biosensors were generated by removing bound Fabs or Ab from immobilized CD3 on SA biosensors. Regeneration conditions used consisted of 3 cycles of 5 seconds of dipping the biosensors in Regeneration Buffer (10 mM Glycine HCl pH 1.5) followed by Assay Buffer (10 mM sodium phosphate pH 7.4, 140 mM Sodium Chloride, 0.005% Tween20 with 0.2% BSA).
The target of assay [15] is T1, CD3 expressed on cell-surface of …. Kind of assay: flow cytometry competition vs murine SP34-AF488 on human T cells, n = 2.
Method: (§6) Binding of humanized SP34 Fab variants to CD3 expressed on cell-surface of primary human T cells was evaluated in a flow cytometry-based competition assay.
For assay [16] the target is unchanged. The assay can be described thus: flow cytometry competition vs murine SP34-AF488 on human T cells, n = 1.
Method: as §6
Assay [17] has the same target. Kind of assay: flow cytometry competition vs murine SP34-AF488 on human T cells, average.
Method: as §6
The target in assay [18] is T2, biotinylated CD3 epsilon: delta …. The assay can be described thus: BLI (Octet), huSP34 variant in Fab format.
Method: as §4, §5
For assay [19], the target named is T1, CD3 expressed on cell-surface of …. The assay can be described thus: flow cytometry competition vs murine SP34-AF488 on human T cells, n = 2. The source holds these as a separate data set.
Method: as §6
(§7) A second round of huSP34 Fab variants were characterized using the same flow cytometry-based competition assay as described above.
For assay [20] the target is unchanged. The assay can be described thus: flow cytometry competition vs murine SP34-AF488 on human T cells, n = 1. This is another data set of the same source.
Method: as §6, §7
The target is the same in assay [21]. The assay can be described thus: flow cytometry competition vs murine SP34-AF488 on human T cells, average. The source holds these as a separate data set.
Method: as §6, §7

Some results are limits rather than exact numbers.

CD3 on rhesus monkey T cells in PBMCs (rhesus monkey), sequence (P16003 26-458): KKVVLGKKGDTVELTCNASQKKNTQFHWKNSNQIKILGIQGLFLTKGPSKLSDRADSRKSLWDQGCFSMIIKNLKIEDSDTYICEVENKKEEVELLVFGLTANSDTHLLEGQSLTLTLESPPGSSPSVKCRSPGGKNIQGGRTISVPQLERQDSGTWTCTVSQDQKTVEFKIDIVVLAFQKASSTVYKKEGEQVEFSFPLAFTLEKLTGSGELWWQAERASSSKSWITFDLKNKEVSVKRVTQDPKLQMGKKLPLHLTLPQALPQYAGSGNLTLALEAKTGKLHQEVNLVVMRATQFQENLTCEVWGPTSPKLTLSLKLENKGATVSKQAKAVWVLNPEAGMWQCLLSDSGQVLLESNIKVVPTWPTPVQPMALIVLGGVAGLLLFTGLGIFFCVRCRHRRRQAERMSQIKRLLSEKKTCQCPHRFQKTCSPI

B1: hPGT121.66 AAS + W/huSP34.1.3 scFv AAS + SAV + RF (bispecific antibody, human IgG1, lambda, L234A L235A)
chain: not shown
heavy: QMQLQESGPGLVKPSETLSLTCSVSGASISDSYWSWIRRSPGKGLEWIGYVHKSGDTNYNPSLKSRVHLSLDTSKNQVSLSLTGVTAADSGKYYCARTLHGRRIYGIVAFNEWFTYFYMDVWGTGTQVTVSSASTKGPSVFPLAPSSKSTSGGTAALGCLVKDYFPEPVTVSWNSGALTSGVHTFPAVLQSSGLYSLSSVVTVPSSSLGTQTYICNVNHKPSNTKVDKKVEPKSCDKTHTCPPCPAPEAAGGPSVFLFPPKPKDTLMISRTPEVTCVVVDVSHEDPEVKFNWYVDGVEVHNAKTKPREEQYNSTYRVVSVLTVLHQDWLNGKEYKCKVSNKALPASIEKTISKAKGQPREPQVYTLPPSREEMTKNQVSLWCLVKGFYPSDIAVEWESNGQPENNYKTTPPVLDSDGSFFLYSKLTVDKSRWQQGNVFSCSVMHEALHNHYTQKSLSLSPGK
light: not shown
With B1, the EC50 – broadly, the midpoint of the concentration-response curve – is 0.32 µg/mL in assay [1]; 0.68 µg/mL in assay [2]; 0.33 µg/mL in [3]; 0.44 µg/mL in [4]; 0.36 µg/mL in [6]; 0.4 µg/mL in assay [7]. Moreover, the EC50 in assay [8] is 0.35 µg/mL; in assay [9], 0.33 µg/mL; in [10] it was 1.02 µg/mL; in assay [11], 0.55 µg/mL; in [12] it was 0.41 µg/mL; in assay [13], 0.42 µg/mL. Further, in [5], the “killing EC50, primary HIV-infected CD4+ cells, PBMC effector cells, isolate 657” value (“killing EC50 … isolate 657” below) was 1.61 µg/mL. For the same molecule, the “killing EC50, primary HIV-infected CD4+ cells, PBMC effector cells, isolate 7552” value (“killing EC50 … isolate 7552” below) in [5] was 0.107 µg/mL.

B2: hPGT121.66 AAS + W/huSP34.13.10 scFv AAS + SAV + RF (bispecific antibody, human IgG1, lambda, L234A L235A)
chain: EVQLVESGGGLVQPGGSLRLSCAASGFTFSTYAMNWVRQAPGKGLEWVGRIRSKYNNYATYYAASVKGRFTISRDDSKNTLYLQMNSLRTEDTAVYYCVRHGNFGHSYVSWFAYWGQGTLVTVSSGGGGSGGGGSGGGGSGGGGSQAVVTQPPSLTVSPGGTVTLTCGSSTGAVTTGHYANWVQQKPGQAPRGLIGGTNKRAPGVPARFSGSLSGGKAALTISGAQPEDEAEYYCALWYSNRWVFGGGTKLTVLEPKSSDKTHTCPPCPAPEAAGGPSVFLFPPKPKDTLMISRTPEVTCVVVDVSHEDPEVKFNWYVDGVEVHNAKTKPREEQYNSTYRVVSVLTVLHQDWLNGKEYKCKVSNKALPASIEKTISKAKGQPREPQVYTLPPSREEMTKNQVSLSCAVKGFYPSDIAVEWESNGQPENNYKTTPPVLDSDGSFFLVSKLTVDKSRWQQGNVFSCSVMHEALHNRFTQKSLSLSPGK
heavy: QMQLQESGPGLVKPSETLSLTCSVSGASISDSYWSWIRRSPGKGLEWIGYVHKSGDTNYNPSLKSRVHLSLDTSKNQVSLSLTGVTAADSGKYYCARTLHGRRIYGIVAFNEWFTYFYMDVWGTGTQVTVSSASTKGPSVFPLAPSSKSTSGGTAALGCLVKDYFPEPVTVSWNSGALTSGVHTFPAVLQSSGLYSLSSVVTVPSSSLGTQTYICNVNHKPSNTKVDKKVEPKSCDKTHTCPPCPAPEAAGGPSVFLFPPKPKDTLMISRTPEVTCVVVDVSHEDPEVKFNWYVDGVEVHNAKTKPREEQYNSTYRVVSVLTVLHQDWLNGKEYKCKVSNKALPASIEKTISKAKGQPREPQVYTLPPSREEMTKNQVSLWCLVKGFYPSDIAVEWESNGQPENNYKTTPPVLDSDGSFFLYSKLTVDKSRWQQGNVFSCSVMHEALHNHYTQKSLSLSPGK
light: not shown
In the case of B2, the EC50 in [1] turned out to be 0.045 µg/mL; in assay [3], 0.037 µg/mL; in assay [6] it was 0.095 µg/mL; in assay [8] it was 0.062 µg/mL. For the same molecule, the “killing EC50 … isolate 657” value in assay [5] worked out at 0.275 µg/mL. In assay [5], the “killing EC50 … isolate 7552” value was determined as 0.011 µg/mL.

B3: hPGT121.66 AAS + W/huSP34.3.6scFv AAS + SAV + RF (bispecific antibody, human IgG1, lambda, L234A L235A)
chain: EVQLVESGGGLVQPGGSLRLSCAASGFTFNTYAMNWVRQAPGKGLEWVGRIRSKYNNYATYYADSVKGRFTISRDDSKNSLYLQMNSLRTEDTAVYYCVRHGNFGHSYVSWFAYWGQGTLVTVSSGGGGSGGGGSGGGGSGGGGSQAVVTQPPSLTVSPGGTVTLTCGSSTGAVTTGHYANWVQQKPGQAPRGLIGGTSNRAPGVPARFSGSLSGGKAALTISGAQPEDEAEYYCALWYSARWVFGGGTKLTVLEPKSSDKTHTCPPCPAPEAAGGPSVFLFPPKPKDTLMISRTPEVTCVVVDVSHEDPEVKFNWYVDGVEVHNAKTKPREEQYNSTYRVVSVLTVLHQDWLNGKEYKCKVSNKALPASIEKTISKAKGQPREPQVYTLPPSREEMTKNQVSLSCAVKGFYPSDIAVEWESNGQPENNYKTTPPVLDSDGSFFLVSKLTVDKSRWQQGNVFSCSVMHEALHNRFTQKSLSLSPGK
heavy: QMQLQESGPGLVKPSETLSLTCSVSGASISDSYWSWIRRSPGKGLEWIGYVHKSGDTNYNPSLKSRVHLSLDTSKNQVSLSLTGVTAADSGKYYCARTLHGRRIYGIVAFNEWFTYFYMDVWGTGTQVTVSSASTKGPSVFPLAPSSKSTSGGTAALGCLVKDYFPEPVTVSWNSGALTSGVHTFPAVLQSSGLYSLSSVVTVPSSSLGTQTYICNVNHKPSNTKVDKKVEPKSCDKTHTCPPCPAPEAAGGPSVFLFPPKPKDTLMISRTPEVTCVVVDVSHEDPEVKFNWYVDGVEVHNAKTKPREEQYNSTYRVVSVLTVLHQDWLNGKEYKCKVSNKALPASIEKTISKAKGQPREPQVYTLPPSREEMTKNQVSLWCLVKGFYPSDIAVEWESNGQPENNYKTTPPVLDSDGSFFLYSKLTVDKSRWQQGNVFSCSVMHEALHNHYTQKSLSLSPGK
light: not shown
notes: also called 259
Regarding B3, the EC50 was found to be 0.65 µg/mL in assay [1], 1.4 µg/mL in assay [3], 0.48 µg/mL in assay [6] and 1.1 µg/mL in assay [8]. Also, the “killing EC50 … isolate 657” value in assay [5] came out at 2.37 µg/mL. Moreover, the “killing EC50 … isolate 7552” value in assay [5] stood at 0.123 µg/mL.

B4: huSP34.3.4 Fab-HF (Fab, V domains shown)
VH: EVQLVESGGGLVQPGGSLRLSCAASGFTFNTYAMNWVRQAPGKGLEWVGRIRSKYNNYATYYADSVKGRFTISRDDSKNSLYLQMNSLRTEDTAVYYCVRHGNFGHSYVSWFAYWGQGTLVTVSS
VL: QAVVTQEPSLTVSPGGTVTLTCGSSTGAVTTSHYANWVQQKPGQAPRGLIGGTSKRAPWTPARFSGSLLGGKAALTLSGAQPEDEAEYYCALWYSALWVFGGGTKLTVL
Turning to B4, the dissociation constant (Kd) in assay [14] and in assay [18] was 86 nM each time. Moreover, the IC50 (as a rule, the point on the concentration scale where inhibition reaches its midpoint) in assay [15] was 17.3 µg/mL; in assay [16], over 20 µg/mL; in [17] it was 17.3 µg/mL.

B5: huSP34.13.10 Fab-HF (Fab, V domains shown)
VH: EVQLVESGGGLVQPGGSLRLSCAASGFTFSTYAMNWVRQAPGKGLEWVGRIRSKYNNYATYYAASVKGRFTISRDDSKNTLYLQMNSLRTEDTAVYYCVRHGNFGHSYVSWFAYWGQGTLVTVSS
VL: QAVVTQPPSLTVSPGGTVTLTCGSSTGAVTTGHYANWVQQKPGQAPRGLIGGTNKRAPGVPARFSGSLSGGKAALTISGAQPEDEAEYYCALWYSNRWVFGGGTKLTVL
Turning to B5, the Kd in assay [14] and in [18] was 1.8 nM each time. The IC50 was 0.16 µg/mL in assay [19], 0.35 µg/mL in assay [20] and 0.25 µg/mL in assay [21].
